Measured values reported in article PMC8551311, “Energy transfer between the nicotinamide nucleotide transhydrogenase and ATP synthase of Escherichia coli” (Scientific Reports, 2021).

Tests used:
Experiment in all cases: purified protein
Assay type in all cases: biochemical, Escherichia coli
purified protein [1] = substrate: NC(=O)C1=CN([C@@H]2O[C@H](COP(=O)(O)OP(=O)(O)OC[C@H]3O[C@@H](n4cnc5c(N)ncnc54)[C@H](OP(=O)(O)O)[C@@H]3O)[C@@H](O)[C@H]2O)C=CC1; conditions: apparent, reverse reaction, 0.5 mM NAD+ held constant by lactate dehydrogenase/pyruvate, 50 mM HEPES pH 7.5, 0.1% DDM
purified protein [2] = substrate: NC(=O)C1=CN([C@@H]2O[C@H](COP(=O)(O)OP(=O)(O)OC[C@H]3O[C@@H](n4cnc5c(N)ncnc54)[C@H](O)[C@@H]3O)[C@@H](O)[C@H]2O)C=CC1; conditions: apparent, forward reaction, 0.5 mM NADP+ held constant by glutathione reductase/oxidized glutathione, 50 mM HEPES pH 7.5, 0.1% DDM
purified protein [3] = substrate: NC(=O)c1ccc[n+]([C@@H]2O[C@H](COP(=O)(O)OP(=O)(O)OC[C@H]3O[C@@H](n4cnc5c(N)ncnc54)[C@H](OP(=O)(O)O)[C@@H]3O)[C@@H](O)[C@H]2O)c1; conditions: apparent, forward reaction, NADH held constant by alcohol dehydrogenase/ethanol (50 μM in methods, 500 μM in results), 6 mM hydrazine, 50 mM HEPES pH 7.5, 0.1% DDM
purified protein [4] = substrate: NC(=O)c1ccc[n+]([C@@H]2O[C@H](COP(=O)(O)OP(=O)(O)OC[C@H]3O[C@@H](n4cnc5c(N)ncnc54)[C@H](O)[C@@H]3O)[C@@H](O)[C@H]2O)c1; conditions: apparent, reverse reaction, 100 μM NADPH held constant by glucose-6-phosphate dehydrogenase/D-glucose-6-phosphate, 5 mM MgCl2, 50 mM HEPES pH 7.5, 0.1% DDM

B1: E. coli transhydrogenase (TH, EcTH) (Escherichia coli K-12) (protein)
chain 1: MRIGIPRERLTNETRVAATPKTVEQLLKLGFTVAVESGAGQLASFDDKAFVQAGAEIVEGNSVWQSEIILKVNAPLDDEIALLNPGTTLVSFIWPAQNPELMQKLAERNVTVMAMDSVPRISRAQSLDALSSMANIAGYRAIVEAAHEFGRFFTGQITAAGKVPPAKVMVIGAGVAGLAAIGAANSLGAIVRAFDTRPEVKEQVQSMGAEFLELDFKEEAGSGDGYAKVMSDAFIKAEMELFAAQAKEVDIIVTTALIPGKPAPKLITREMVDSMKAGSVIVDLAAQNGGNCEYTVPGEIFTTENGVKVIGYTDLPGRLPTQSSQLYGTNLVNLLKLLCKEKDGNITVDFDDVVIRGVTVIRAGEITWPAPPIQVSAQPQAAQKAAPEVKTEEKCTCSPWRKYALMALAIILFGWMASVAPKEFLGHFTVFALACVVGYYVVWNVSHALHTPLMSVTNAISGIIVVGALLQIGQGGWVSFLSFIAVLIASINIFGGFTVTQRMLKMFRKN
chain 2: MSGGLVTAAYIVAAILFIFSLAGLSKHETSRQGNNFGIAGMAIALIATIFGPDTGNVGWILLAMVIGGAIGIRLAKKVEMTEMPELVAILHSFVGLAAVLVGFNSYLHHDAGMAPILVNIHLTEVFLGIFIGAVTFTGSVVAFGKLCGKISSKPLMLPNRHKMNLAALVVSFLLLIVFVRTDSVGLQVLALLIMTAIALVFGWHLVASIGGADMPVVVSMLNSYSGWAAAAAGFMLSNDLLIVTGALVGSSGAILSYIMCKAMNRSFISVIAGGFGTDGSSTGDDQEVGEHREITAEETAELLKNSHSVIITPGYGMAVAQAQYPVAEITEKLRARGINVRFGIHPVAGRLPGHMNVLLAEAKVPYDIVLEMDEINDDFADTDTVLVIGANDTVNPAAQDDPKSPIAGMPVLEVWKAQNVIVFKRSMNTGYAGVQNPLFFKENTHMLFGDAKASVDAILKAL
Q: How did the Km (purified protein [1]) turn out when B1 was run?
A: 4.1 ± 1.2 µM

Q: What about the Km (purified protein [2]) of the same protein?
A: 6.8 ± 1 µM

Q: What about the Km (purified protein [3]) of the same protein?
A: 37 ± 7 µM

Q: What about the Km (purified protein [4]) of the same protein?
A: 108 ± 12 µM
